Data published in patent US20160230155A1.
One block for each binder: values may come before it.

Target: M6P receptors expressed on MEF-1 fibroblasts
Test: cell-based or functional assay

receptor mediated endocytosis in MEF-1 cells: specific activity in cell homogenate relative to unmodified recombinant sulfamidase (% of unmodified recombinant sulfamidase): < 10
B1: sulfamidase (SEQ ID NO:2) chemically modified according to the known method (WO 2008/109677): 20 mM sodium meta-periodate 0 °C 6.5 h, dialysis, 100 mM sodium … (enzyme)
chain: GSRPRNALLLLADDGGFESGAYNNSAIATPHLDALARRSLLFRNAFTSVSSCSPSRASLLTGLPQHQNGMYGLHQDVHHFNSFDKVRSLPLLLSQAGVRTGIIGKKHVGPETVYPFDFAYTEENGSVLQVGRNITRIKLLVRKFLQTQDDRPFFLYVAFHDPHRCGHSQPQYGTFCEKFGNGESGMGRIPDWTPQAYDPLDVLVPYFVPNTPAARADLAAQYTTVGRMDQGVGLVLQELRDAGVLNDTLVIFTSDNGIPFPSGRTNLYWPGTAEPLLVSSPEHPKRWGQVSEAYVSLLDLTPTILDWFSIPYPSYAIFGSKTIHLTGRSLLPALEAEPLWATVFGSQSHHEVTMSYPMRSVQHRHFRLVHNLNFKMPFPIDQDFYVSPTFQDLLNRTTAGQPTGWYKDLRHYYYRARWELYDRSRDPHETQNLATDPRFAQLLEMLRDQLAKWQWETHDPWVCAPDGVLEEKLSPQCQPLHNEL
modifications: N-glycans at N(21), N(131), N(244), N(393) of SEQ ID NO:1 disrupted by periodate oxidation and borohydride reduction; FGly50 about 56% converted to Ser50; methionine 184 and methionine 443 almost completely oxidized

receptor mediated endocytosis in MEF-1 cells: specific activity in cell homogenate relative to unmodified recombinant sulfamidase (% of unmodified recombinant sulfamidase): < 10
B2: sulfamidase (SEQ ID NO:2) chemically modified according to new method 1: 20 mM sodium meta-periodate 0 °C 120 min, 50 mM sodium borohydride 0 °C 120 min (enzyme)
chain: B1 chain
modifications: N-glycans at N(21), N(131), N(244), N(393) of SEQ ID NO:1 disrupted by periodate oxidation and borohydride reduction; FGly50 about 45% converted to Ser50

receptor mediated endocytosis in MEF-1 cells: specific activity in cell homogenate relative to unmodified recombinant sulfamidase (% of unmodified recombinant sulfamidase): < 10
B3: sulfamidase (SEQ ID NO:2) chemically modified according to new method 2: 20 mM sodium meta-periodate 0 °C 120 min, 10 mM sodium borohydride 0 °C 120 min (enzyme)
chain: B1 chain
modifications: N-glycans of SEQ ID NO:1 sites disrupted by periodate oxidation and borohydride reduction; FGly50 about 11.5% converted to Ser50
